9 molecules from US20190031783A1 (AbbVie / Abbott, published 2019) can be followed below.

Sequences and labels used below:
B1: Av-GS10-h1A11.1 (bispecific antibody, human IgG1)
VH: EVQLVESGGGLVQPGGSLRLSCAASGYTFTNYGMNWVRQAPGKGLEWVGWINTYTGEPTYAADFKRRFTFSLDTSKSTAYLQMNSLRAEDTAVYYCAKYPHYYGSSHWYFDVWGQGTLVTVSSGGGGSGGGGSEVQLVESGGGLVQPGGSLRLSCAASGFTFSNFPMAWVRQAPGKGLEWVATISSSDGTTYYRDSVKGRFTISRDNAKNSLYLQMNSLRAEDTAVYYCARGYYNSPFAYWGQGTLVTVSS
VL: DIQMTQSPSSLSASVGDRVTITCSASQDISNYLNWYQQKPGKAPKVLIYFTSSLHSGVPSRFSGSGSGTDFTLTISSLQPEDFATYYCQQYSTVPWTFGQGTKVEIKRGGSGGGGSGDIQMTQSPSSLSASVGDRVTITCRASEDIYSNLAWYQQKPGKAPKLLIYDTNNLADGVPSRFSGSGSGTDFTLTISSLQPEDFATYYCQQYNNYPPTFGQGTKLEIKR
notes: DVD-Ig
B2: Av-GS6-h1A11.1 (bispecific antibody, human IgG1)
VH: EVQLVESGGGLVQPGGSLRLSCAASGYTFTNYGMNWVRQAPGKGLEWVGWINTYTGEPTYAADFKRRFTFSLDTSKSTAYLQMNSLRAEDTAVYYCAKYPHYYGSSHWYFDVWGQGTLVTVSSGGGGSGEVQLVESGGGLVQPGGSLRLSCAASGFTFSNFPMAWVRQAPGKGLEWVATISSSDGTTYYRDSVKGRFTISRDNAKNSLYLQMNSLRAEDTAVYYCARGYYNSPFAYWGQGTLVTVSS
VL: DIQMTQSPSSLSASVGDRVTITCSASQDISNYLNWYQQKPGKAPKVLIYFTSSLHSGVPSRFSGSGSGTDFTLTISSLQPEDFATYYCQQYSTVPWTFGQGTKVEIKRGGSGGDIQMTQSPSSLSASVGDRVTITCRASEDIYSNLAWYQQKPGKAPKLLIYDTNNLADGVPSRFSGSGSGTDFTLTISSLQPEDFATYYCQQYNNYPPTFGQGTKLEIKR
notes: DVD-Ig
B3: h1A11.1-GS14-Av (bispecific antibody, human IgG1)
VH: EVQLVESGGGLVQPGGSLRLSCAASGFTFSNFPMAWVRQAPGKGLEWVATISSSDGTTYYRDSVKGRFTISRDNAKNSLYLQMNSLRAEDTAVYYCARGYYNSPFAYWGQGTLVTVSSGGGGSGGGGSGGGGEVQLVESGGGLVQPGGSLRLSCAASGYTFTNYGMNWVRQAPGKGLEWVGWINTYTGEPTYAADFKRRFTFSLDTSKSTAYLQMNSLRAEDTAVYYCAKYPHYYGSSHWYFDVWGQGTLVTVSS
VL: DIQMTQSPSSLSASVGDRVTITCRASEDIYSNLAWYQQKPGKAPKLLIYDTNNLADGVPSRFSGSGSGTDFTLTISSLQPEDFATYYCQQYNNYPPTFGQGTKLEIKRGGSGGGGSGGGGSDIQMTQSPSSLSASVGDRVTITCSASQDISNYLNWYQQKPGKAPKVLIYFTSSLHSGVPSRFSGSGSGTDFTLTISSLQPEDFATYYCQQYSTVPWTFGQGTKVEIKR
notes: DVD-Ig
B4: h1A11.1-GS10-Av (bispecific antibody, human IgG1)
VH: EVQLVESGGGLVQPGGSLRLSCAASGFTFSNFPMAWVRQAPGKGLEWVATISSSDGTTYYRDSVKGRFTISRDNAKNSLYLQMNSLRAEDTAVYYCARGYYNSPFAYWGQGTLVTVSSGGGGSGGGGSEVQLVESGGGLVQPGGSLRLSCAASGYTFTNYGMNWVRQAPGKGLEWVGWINTYTGEPTYAADFKRRFTFSLDTSKSTAYLQMNSLRAEDTAVYYCAKYPHYYGSSHWYFDVWGQGTLVTVSS
VL: DIQMTQSPSSLSASVGDRVTITCRASEDIYSNLAWYQQKPGKAPKLLIYDTNNLADGVPSRFSGSGSGTDFTLTISSLQPEDFATYYCQQYNNYPPTFGQGTKLEIKRGGSGGGGSGDIQMTQSPSSLSASVGDRVTITCSASQDISNYLNWYQQKPGKAPKVLIYFTSSLHSGVPSRFSGSGSGTDFTLTISSLQPEDFATYYCQQYSTVPWTFGQGTKVEIKR
notes: DVD-Ig; also called h1A11.GS10-Av
B5: Av-GS14-h1A11.1 (bispecific antibody, human IgG1)
VH: EVQLVESGGGLVQPGGSLRLSCAASGYTFTNYGMNWVRQAPGKGLEWVGWINTYTGEPTYAADFKRRFTFSLDTSKSTAYLQMNSLRAEDTAVYYCAKYPHYYGSSHWYFDVWGQGTLVTVSSGGGGSGGGGSGGGGEVQLVESGGGLVQPGGSLRLSCAASGFTFSNFPMAWVRQAPGKGLEWVATISSSDGTTYYRDSVKGRFTISRDNAKNSLYLQMNSLRAEDTAVYYCARGYYNSPFAYWGQGTLVTVSS
VL: DIQMTQSPSSLSASVGDRVTITCSASQDISNYLNWYQQKPGKAPKVLIYFTSSLHSGVPSRFSGSGSGTDFTLTISSLQPEDFATYYCQQYSTVPWTFGQGTKVEIKRGGSGGGGSGGGSDIQMTQSPSSLSASVGDRVTITCRASEDIYSNLAWYQQKPGKAPKLLIYDTNNLADGVPSRFSGSGSGTDFTLTISSLQPEDFATYYCQQYNNYPPTFGQGTKLEIKR
notes: DVD-Ig
B6: Av-SL-h1A11.1 (bispecific antibody, human IgG1)
VH: B2 VH with G124A, G125S, G126T, G127K, S128G, G129P
VL: DIQMTQSPSSLSASVGDRVTITCSASQDISNYLNWYQQKPGKAPKVLIYFTSSLHSGVPSRFSGSGSGTDFTLTISSLQPEDFATYYCQQYSTVPWTFGQGTKVEIKRTVAAPSVFIFPPDIQMTQSPSSLSASVGDRVTITCRASEDIYSNLAWYQQKPGKAPKLLIYDTNNLADGVPSRFSGSGSGTDFTLTISSLQPEDFATYYCQQYNNYPPTFGQGTKLEIKR
notes: DVD-Ig
B7: Av-LS-h1A11.1 (bispecific antibody, human IgG1)
VH: EVQLVESGGGLVQPGGSLRLSCAASGYTFTNYGMNWVRQAPGKGLEWVGWINTYTGEPTYAADFKRRFTFSLDTSKSTAYLQMNSLRAEDTAVYYCAKYPHYYGSSHWYFDVWGQGTLVTVSSASTKGPSVFPLAPEVQLVESGGGLVQPGGSLRLSCAASGFTFSNFPMAWVRQAPGKGLEWVATISSSDGTTYYRDSVKGRFTISRDNAKNSLYLQMNSLRAEDTAVYYCARGYYNSPFAYWGQGTLVTVSS
VL: B2 VL with G109T, G110V, S111A, G112A, G113P
notes: DVD-Ig
B8: Av-SS-h1A11.1 (bispecific antibody, human IgG1)
VH: B2 VH with G124A, G125S, G126T, G127K, S128G, G129P
VL: B2 VL with G109T, G110V, S111A, G112A, G113P
notes: DVD-Ig
B9: Av-LL-h1A11.1 (bispecific antibody, human IgG1)
VH: B7 VH
VL: B6 VL
notes: DVD-Ig

Numbering of substitutions follows the chain as printed.

One assay addresses T1, purified recombinant human DLL4 extracellular domain (ECD) (human, UniProt Q9NR61 27-529).
T1 construct: extracellular domain; also called human DLL4529; huDLL4
Kind of assay: SPR (Biacore), DVD captured via anti-human Fc, DLL4 ECD injected, 25 C. How it is done: For DLL4 binding kinetic measurements the assay buffer was HBS-EPB: 10 mM Hepes, pH7.5, 150 mM NaCl, 3 mM EDTA, 0.005% Tween 20, 0.1 mg/ml BSA (Sigma A7906). For VEGF binding kinetic measurements the assay buffer was HBS-EP+(3N01B): 10 mM Hepes, pH7.5, 300 mM NaCl, 3 mM EDTA, 0.05% Tween 20, 0.1 mg/ml BSA (Sigma A7906). For example, approximately 9000 RU of goat anti-human Fc specific polyclonal antibody (Thermo Fisher Scientific Inc., Rockford, Ill.) diluted in 10 mM sodium acetate (pH 4.5) is directly immobilized across a CM5 research grade biosensor chip using a standard amine coupling kit according to manufacturer's instructions and procedures at 25 ug/ml. Unreacted moieties on the biosensor surface are blocked with ethanolamine. For kinetic analysis, rate equations derived from the 1:1 Langmuir binding model are fitted simultaneously to multiple antigen injections (using global fit analysis) with the use of Scrubber 2 (BioLogic Software), Biacore Biaevaluation 4.0.1 software or Biacore T100 Evaluation software. Purified antibodies are diluted in running buffer for capture across goat anti-human Fc reaction surfaces. Antibodies to be captured as a ligand (1 ug/ml) are injected over reaction matrices at a flow rate of 10 ul/min. During the assay, all measurements are referenced against the capture surface alone (i.e. with no captured antibody). […] The equilibrium dissociation constant KD (M) of the reaction between antibodies and the target antigen is then calculated from the kinetic rate constants by the following formula: KD=Koff/Kₒₙ. Binding is recorded as a function of time and kinetic rate constants are calculated.
For the molecule B1, the Kd came to 29 nM.

Consider B2, for which the Kd was found to be 50 nM.

As for B3, the Kd was found to be 9.7 nM.

On to B4, for which the Kd came to 9.3 nM.

For B5, the Kd was 34 nM.

The target of a further assay is T1, purified recombinant human DLL4 …. The assay is described as follows: Notch competition ELISA: inhibition of biotin DLL4 ECD binding to coated human Notch-1. The method, then: Plates were then washed 3× with wash buffer (PBS, 0.05% Tween-20) and blocked with 200 μl/well blocking buffer (D-PBS, 1% BSA, 1 mM CaCl₂, 0.05% Tween-20) for 1 hour at 25° C. […] Assay plates were washed after blocking, and incubated with DLL4/antibody mixtures (100 μl/well, 1 hour at 25° C. with shaking). Plates were washed again and 100 μl/well of streptavidin conjugated with HRP (Fitzgerald #65R-S104PHRPx, diluted 1:5,000 in blocking buffer) was added for 1 hour at 25° C. with shaking. After a final wash, plates were developed using 100 μl/well substrate (TMB Sigma #T8665), and the reaction was stopped using 100 μl/well 1N HCl, and the absorbance was read at 450 nm. Data was analyzed using Graphpad Prism software and IC₅₀ values were reported as the concentration of antibody required to achieve 50% reduction of DLL4 binding to Notch1.
Take B1: the IC50 was found to be 1.5 nM.

On to B2, for which the IC50 was found to be 3.41 nM.

With B6, the IC50 was 7.38 nM.

For B7, the IC50 is 2.77 nM.

On to B8, for which the IC50 is 3500 nM.

Take B3: the concentration for half-maximal inhibition (IC50) was found to be 0.68 nM.

As to B9, the IC50 came out at 2.43 nM.

As for B4, the IC50 worked out at 0.65 nM.

Consider B5, for which the IC50 came out at 1.54 nM.
